The values that follow come from patent publication US12338291B2, “Humanized antibody molecules to CD138 and uses thereof” (VISTERRA, INC., priority 2019, dated 2025).

Data set [1] has as its system MM1.S (Luc) cells.
Procedure: The mice (N=9 per group) were distributed to ensure that the mean whole-body tumor burden for all groups was within 10% of the overall mean whole-body tumor burden for the study population. Treatment was initiated on day 14 post tumor implant. […] Treatment in all groups was discontinued at Day 53; surviving animals were monitored for an additional 3 weeks out to Day 73 (discontinuation phase of the study).
Whole body tumor burden was monitored by bioluminescence. […] BLI was performed using an IVIS Lumina S5 (PerkinElmer, MA). Animals were imaged five at a time under 1-2% isoflurane gas anesthesia. […] Large binning of the CCD chip was used, and the exposure time was adjusted (5 seconds to 2 minutes) to obtain at least several hundred counts per image and to avoid saturation of the CCD chip Animals were imaged once weekly at staging and on days 14, 21, 29, 36, 43, 53, and 73 (end of study) for all animals remaining on study. Images were analyzed using Living Image 4.7.1 (PerkinElmer, MA) software. Whole body fixed-volume regions of interest (ROIs) were placed on prone and supine images for each individual animal and labeled based on animal identification. Total flux (photons/sec) was calculated and exported for all ROIs to facilitate analyses between groups. The prone and supine ROIs were summed together to estimate whole body tumor burden. Subject ROIs were also placed over each mouse, and region-specific ROIs were placed over spine and hindlimbs for each animal. These ROIs were then quantified independent of the whole-body ROIs in order to calculate signal from only hind limbs or spine.
Primary and secondary efficacy endpoints were generated using in vivo whole body BLI and included tumor burden assessment as described herein. Endpoints included whole body BLI ratio T/C (where T=treatment group and C=vehicle control) measured on each imaging day and reported on day 36 and tumor growth delay as measured as time to tumor burden as pre-defined as a BLI signal of 1.0×10^9 p/s. Additional efficacy endpoints included tumor regression, tumor free survival (TFS), and median life span normalized to vehicle control (% increased life span); this latter endpoint was calculated based on the first day of treatment and not the day of implant. Overall survival was calculated based on animals remaining on study.
Additional measurements included body weights (3× weekly), daily clinical observations and necropsy following euthanasia. Pre-defined euthanasia criteria were related to disease progression and included >20% loss in body weight or disease-related morbidity such as hind limb paralysis, paresthesia, or other signs of severe CNS or musculoskeletal impairment.
In data set [2] the test system is CD138+ MM1.S cells. The data set can be described thus: Antibody binding to MM1.S cells by flow cytometry. Also on record: species or system human. Conditions: FIG. 3. The protocol: (§1) In one experiment, the humanized variants of monoclonal antibody 2810 were assessed for their capacity to bind to CD138 on the surface of cells. Briefly, the humanized variants of antibody 2810 were produced in HEK 293 cells following transient transfection. The antibodies were then serially diluted three-fold. Antibody binding to membrane CD138 was evaluated using the CD138+ human lymphoblastic myeloma cell line U266 and quantified by flow cytometry. Antibody cell binding was reported as geometric mean fluorescence intensity (MFI). Binding data were plotted using nonlinear regression analysis and a 4-parameter curve fit.
(§2) First, humanized anti-CD138 antibody variants 3821, 4321, 4320, 4521, 4326, and 3820 were evaluated for binding to three different CD138+ multiple myeloma related cell lines: MM1.S, LP-1, and RPMI 8226. Antibody binding was measured by flow cytometry as described in Example 15.
In general terms: In flow cytometry, cells or beads pass a laser one at a time.

Data set [3] relates to CD138+ RPMI 8226 cells. Briefly: Antibody binding to RPMI 8226 cells by flow cytometry. Also on record: species or system human. The note with it: FIG. 3. On the procedure: as §1, §2
The test system of data set [4] is CD138+ LP-1 cells. Briefly: Antibody binding to LP-1 cells by flow cytometry. Also noted: species or system human. The note with it: FIG. 3. On the procedure: as §1, §2
Data set [5] has as its system CD138+ RPMI 8226 cells. Briefly: Luciferase-based ADCC reporter assay against RPMI 8226. It counts as cell-based, human. The note with it: 3-fold dilutions from 10 μg/mL, E:T 10:1, 16 h, FIG. 4. The protocol: (§3) In another experiment, the ADCC activity of the humanized variants of anti-CD138 antibody 2810 was assessed. Briefly, the humanized variant antibodies were produced by transient transfection of HEK 293 cells metabolically altered for purposes of reduced Fc fucosylation. The antibodies were then evaluated for antibody dependent cellular cytotoxicity (ADCC) activity against CD138^+ human lymphoblastic myeloma U266 cells in a luciferase based ADCC reporter assay using, as effector cells, engineered Jurkat cells stably transfected with the human FcγRIIIa receptor. U266 cells were incubated with mAbs that were 3-fold serially diluted from a starting concentration of 3 μg/mL and added to effector cells and CD138+U266 multiple myeloma target cells at a cell ratio of effector:target of 10:1. After 16-hour incubation at 37° C., luciferase activity was assessed as a measure of ADCC activity and reported as relative luminescence units (RLU). ADCC data were plotted using nonlinear regression analysis and a 4-parameter curve fit.
(§4) Second, humanized anti-CD138 antibody variants 3821, 4321, 4320, 4521, 4326, and 3820 were assessed for ADCC activity against U266, MM1.S, LP-1, and RPMI 8226 CD138^+ multiple myeloma cell lines using a luciferase based ADCC reporter assay, as described in Example 15. CD138^+ target cells were incubated with anti-CD138 antibodies that were serially diluted 3-fold starting at a concentration of 10 μg/mL, and subsequently added to FcγRIIIa effector cells at a cell ratio of effector:target cell (E:T of 10:1). After a 16 hour incubation at 37° C., cellular luciferase levels were quantified as a measure of ADCC activity and reported as relative luminescence units (RLU).
Background: Reporter assays use an easily measured gene product as a stand-in for the process of interest.

Data set [6] deals with CD138+ human lymphoblastic myeloma U266 cells. Briefly: Luciferase-based ADCC reporter bioassay (Jurkat FcγRIIIa effector cells) against U266. The data set is classed as cell-based. The note with it: 3-fold dilutions from 10 μg/mL, E:T 10:1, 16 h, FIG. 4. On the procedure:
as §3, §4
Briefly, the two antibodies were evaluated for ADCC activity against CD138^+ human lymphoblastic myeloma U266 cells in a luciferase based ADCC reporter assay using, as effector cells, engineered Jurkat cells stably transfected with the human FcγRIIIa receptor as described in Example 1. This comparison is summarized in FIG. 9B with data normalized as fold-induction of ADCC activity relative to the minus antibody control.

In data set [7] the test system is CD138+ MM1.S cells. Briefly: Luciferase-based ADCC reporter assay against MM1.S. It counts as cell-based, human. Conditions: 3-fold dilutions from 10 μg/mL, E:T 10:1, 16 h, FIG. 4. The protocol: as §3, §4
Data set [8] is described as follows: Differential scanning fluorescence (DSF) thermal stability. It counts as physicochemical. Conditions: PBS pH 7.4, 25-95 °C; for TM1: first thermal transition; for TM2: second thermal transition. The text has this:
Thermal stability represents an important property of antibodies and is used as a predictive surrogate of pharmaceutical drug stability in humans based on a relative stability profile as characterized by differential thermal melting profiles. Several methods exist for evaluation of product stability based on thermal melting. These include, for example, circular dichroism (CD), differential scanning calorimetry (DSC), and differential scanning fluorescence (DSF), among others. In this example, the thermal stabilities of select humanized anti-CD138 antibodies were evaluated by DSF. DSF was used to monitor the conformational stability of a protein as it was exposed to increasing thermal stress. The dye, SYPRO Orange®, fluoresces in a hydrophobic environment, such as hydrophobic core residues that are exposed during thermally triggered protein unfolding, or denaturation. In brief, SYPRO® Orange Dye (Sigma Chemical) was diluted 1:500 in phosphate buffered saline (PBS), pH 7.4, without addition of any detergents. Antibodies were likewise diluted in PBS to a target concentration of 0.5 mg/mL. 15 μl of diluted antibody and fluorescent dye were added 1:1 (v/v) into a 96 well microtiter plate and thoroughly mixed by repeat pipetting. Thermal scans were carried out using a real-time quantitative PCR (qPCR) thermal cycler with fluorescence detection capabilities. Scans were initiated at 25° C. with incremental increase in well temperature of 1° C. ramp/minute from 25° C. to 95° C. The mid-point (Tm) between native state and the first unfolding event was reported as the transition temperature or melt temperature (TM). TMs were then calculated based on transformation of the data using the first derivative of the fluorescence signal versus time. (dfluoresence/dtime) (FIG. 7).

In data set [9] the test system is CD138+ LP-1 cells. Briefly: Luciferase-based ADCC reporter assay against LP-1. The data set is classed as cell-based, human. Conditions: 3-fold dilutions from 10 μg/mL, E:T 10:1, 16 h, FIG. 4. The protocol:
as §3, §4

Take `CC(C)C[C@H](NC(=O)[C@H](Cc1ccccc1)NC(=O)c1cnccn1)B(O)O` [bortezomib, [(1R)-3-Methyl-1-[[(2S)-1-oxo-3-phenyl-2-[(pyrazinylcarbonyl)amino]propyl]amino]butyl]boronic Acid, reference compound]: the “Change in body weight” value in data set [1] (FIG. 21) is listed as “Loss of body weight”. For the same molecule, the “Loss of weight of euthanized animal” value in data set [1] (bortezomib single agent, day 23) is given as −24%. The molecule further yielded a Treatment related death in data set [1] (bortezomib single treatment group, initially 2 mg/kg, early euthanasia day 23) of 11%. Further, the “Survival (animals remaining on study to end of study)” value in [1] (day 73, treatment discontinued day 53) is recorded as “none of the animals survived”. Further, in data set [1] (end of dosing phase), the “Incidence of complete or partial regression” value is “None”. The “Tumor growth delay (time to BLI 1.0×10^9 p/s)” value in data set [1] (mAb 4320 4 mg/kg, bortezomib 1 mg/kg i.p. twice weekly) is on record as 10.6 days. The “Increase in life span relative to vehicle control” value in data set [1] (mAb 4320 4 mg/kg, bortezomib 1 mg/kg i.p. twice weekly, day 14-53) is on record as 40%. Moreover, in data set [1] (mouse, in vivo), the Tolerability / toxicity entry was “treatment related toxicity was observed”.

B1: mAb 3821: humanized anti-CD138 antibody; VH SEQ ID NO: 466, VL SEQ ID NO: 476 (antibody, V domains shown)
VH: QVQLVQSGAEVKKPGSSVKVSCKASGYSFSSYYMHWVRQAPGQGLEWMGTIHPSDSTANYNQKFKGRVTITVDKSTSTAYMELSSLRSEDTAVYYCANFVYWGQGTTVTVSS
VL: DIVMTQTPLSLSVTPGQPASISCKSSKSLLYKDGKTYLNWFLQKPGQSPQLLIYVVSTRASGVPDRFSGSGSGTDFTLKISRVEAEDVGVYYCQQLVQYPYTFGQGTKLEIK
Consider B1, for which the “Antibody binding by flow cytometry” value in data set [2], in data set [3] and in [4] was “dose-dependent binding” throughout. Moreover, the “ADCC activity (RLU)” value in data set [5], in data set [6], in data set [7] and in [9] was “induced ADCC activity” throughout. This molecule yielded a TM1 in [8] of 69.1 °C. Also, in data set [8], the TM2 worked out at 77.7 °C.

B2: mAb 3820: humanized anti-CD138 antibody; VH SEQ ID NO: 466, VL SEQ ID NO: 475 (antibody, V domains shown)
VH: QVQLVQSGAEVKKPGSSVKVSCKASGYSFSSYYMHWVRQAPGQGLEWMGTIHPSDSTANYNQKFKGRVTITVDKSTSTAYMELSSLRSEDTAVYYCANFVYWGQGTTVTVSS
VL: DIVMTQTPLSLSVTPGQPASISCKSSKSLLYKDGKTYLNWFLQKPGQSPQLLIYVVSTRASGVPDRFSGSGSGTDFTLKISRVEAEDVGVYYCQQLVEYPYTFGQGTKLEIK
On to B2, for which the “Antibody binding by flow cytometry” value in data set [2], in data set [3] and in data set [4] was “dose-dependent binding” throughout. For the same molecule, the “ADCC activity (RLU)” value in data set [5], in data set [6], in data set [7] and in data set [9] was “induced ADCC activity” each time.

B3: mAb 4521: humanized anti-CD138 antibody; VH SEQ ID NO: 473, VL SEQ ID NO: 476 (antibody, V domains shown)
VH: QVQLVQSGAEVKKPGASVKVSCKASGYNFASYYMHWVRQAPGQGLEWMGTIHPSDSTTNYNQKFKGRVTMTVDTSTSTAYMELSSLRSEDTAVYYCANFVYWGQGTTVTVSS
VL: DIVMTQTPLSLSVTPGQPASISCKSSKSLLYKDGKTYLNWFLQKPGQSPQLLIYVVSTRASGVPDRFSGSGSGTDFTLKISRVEAEDVGVYYCQQLVQYPYTFGQGTKLEIK
Turning to B3, the “Antibody binding by flow cytometry” value in data set [2], in data set [3] and in [4] was “dose-dependent binding” each time. The “ADCC activity (RLU)” value in data set [5], in data set [6], in data set [7] and in data set [9] was “induced ADCC activity” each time.

B4: mAb 4326: humanized anti-CD138 antibody; VH SEQ ID NO: 471, VL SEQ ID NO: 481 (antibody, V domains shown)
VH: QVQLVQSGAEVKKPGASVKVSCKASGYSFSSYYMHWVRQAPGQGLEWMGTIHPSDSTTNYNQKFQGRVTMTVDTSTRTAYMELSSLRSEDTAVYYCANFVYWGQGTTVTVSS
VL: DIVMTQSPDSLAVSLGERATINCKSSQSLLYKDGKTYLNWFQQKPGQPPKLLIYVVSTRASGVPDRFSGSGSGTDFTLTISSLQAEDVAVYYCQQLVEYPYTFGQGTKLEIK
As for B4, the “Antibody binding by flow cytometry” value in [2], in data set [3] and in data set [4] was “dose-dependent binding” in each case. In addition, the “ADCC activity (RLU)” value in data set [5], in data set [6], in [7] and in data set [9] was “induced ADCC activity” each time.

B5: mAb 4321: humanized anti-CD138 antibody; VH SEQ ID NO: 471, VL SEQ ID NO: 476 (antibody, V domains shown)
VH: QVQLVQSGAEVKKPGASVKVSCKASGYSFSSYYMHWVRQAPGQGLEWMGTIHPSDSTTNYNQKFQGRVTMTVDTSTRTAYMELSSLRSEDTAVYYCANFVYWGQGTTVTVSS
VL: DIVMTQTPLSLSVTPGQPASISCKSSKSLLYKDGKTYLNWFLQKPGQSPQLLIYVVSTRASGVPDRFSGSGSGTDFTLKISRVEAEDVGVYYCQQLVQYPYTFGQGTKLEIK
As for B5, the “Antibody binding by flow cytometry” value in data set [2], in data set [3] and in [4] was “dose-dependent binding” throughout. Moreover, the “ADCC activity (RLU)” value in data set [5], in [6], in [7] and in data set [9] was “induced ADCC activity” each time. This molecule gave a TM1 in data set [8] of 69.3 °C. Besides, the TM2 in data set [8] is 76.9 °C.
